Test results reported in patent publication WO2007059715A2 (dated 2007).

Biological target: chimeric protein PMEC1-His6 (dengue 2 virus, strain 1409, genotype …)
Experiment: dot blot, 10 μg protein spotted, antibody 10 μg/ml

B1: monoclonal antibody 4G2 (antibody, V domains shown)
VH: EVQLQQSGPELVKPGTSVKISCKTSGYTFTEYTIHWVKQSHGKSLAWIGGIDPNSGGTNYSPNFKGKATLTVDKSSSTAYMDLRSLSSEDSAVYFCARIYHYDGYFDVWGAGTAVTVSS
VL: NIVMTQSPKSMSMSVGERVTLTCKASENVVTYVSWYQQKPEQSPKLLIYGASNRYTGVPDRFTGSGSATDFTLTISSVQAEDLADYHCGQGYSYPYTFGGGTKLEIK
notes: also called AcM 4G2; Mab 4G2
- binding result: binds
